Assay results published in CN114409777A (SHAANXI HISINOVEC SCIENCE AND TECH LIMITED COMPANY, dated 2022).

Target: T1, 脆弱拟杆菌毒素BFT1全长蛋白(BFT1-sFL)，不含信号肽 (Bacteroides fragilis (产肠毒素脆弱拟杆菌, ETBF), UniProt P54355 26-405)
T1 construct: domain: 不含信号肽全长 (full length without signal peptide, pro domain kept); Recombinant protein from E. coli; This is not the processed catalytic domain alone: the pro domain is still present; also called BFT重组蛋白; BFT全长
T1 sequence: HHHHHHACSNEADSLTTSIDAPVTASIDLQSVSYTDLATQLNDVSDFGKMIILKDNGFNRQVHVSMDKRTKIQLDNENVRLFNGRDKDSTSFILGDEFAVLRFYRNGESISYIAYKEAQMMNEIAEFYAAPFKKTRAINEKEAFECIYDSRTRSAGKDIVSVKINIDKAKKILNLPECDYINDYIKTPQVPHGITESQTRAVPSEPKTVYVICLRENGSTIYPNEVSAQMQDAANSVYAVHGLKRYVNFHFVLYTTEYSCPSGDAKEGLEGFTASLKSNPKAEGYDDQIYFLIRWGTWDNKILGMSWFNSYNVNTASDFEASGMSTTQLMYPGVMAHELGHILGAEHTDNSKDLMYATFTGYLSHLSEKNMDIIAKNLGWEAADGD
Test: ITC (Microcal PEAQ-ITC), 20℃, nanobody about 20 μM, BFT1-sFL about 200 μM, 20mM Tris-HCl pH 8.0, 150mM NaCl, 5% glycerol

B1: 结直肠癌相关的抗脆弱拟杆菌毒素蛋白激活体的特异性纳米抗体Nb3.27 (VHH)
VHH: QVQLQESGGGLVQAGGSLRLSCTYSGQTFSAWAMGWFRQAPGKERETVATINWNGERTQYADAVKGRFTISRDNAKDTVYLEMNSLKPEDTAVYYCASMMGTYYSGSPKNWGQGTQVTVSS
notes: also called BFT-211纳米抗体; BFT1-sFL纳米抗体
B1 was tested, and the Kd was 15.3 nM.
